Assay results taken from patent US20250304644A1, “PEPTIDES TRIPLE AGONISTS OF GIP, GLP-1 AND GLP-2” (BAINAN BIOTECH APS, priority 2021, published 2025).
*1 amine or outer side, *2 acyl side, *3 side chain or, on linkers, in order; H or OH if unused. Where a SMILES comes first, the peptide text is derived from it. Where no end group is shown, it is not given here. Side-chain parts run from the residue outwards. The star is where a group is joined. C18 diacid = O=C(O)CCCCCCCCCCCCCCCCC(=O)*; γGlu = O=C(O)[C@H](CCC(=O)[*:2])N[*:1]; AEEA = NCCOCCOCC(=O)O

T1: human GIPR (Homo sapiens, UniProt P48546)
T1 construct: host or cells: COS-7
T1 sequence (P48546 22-466): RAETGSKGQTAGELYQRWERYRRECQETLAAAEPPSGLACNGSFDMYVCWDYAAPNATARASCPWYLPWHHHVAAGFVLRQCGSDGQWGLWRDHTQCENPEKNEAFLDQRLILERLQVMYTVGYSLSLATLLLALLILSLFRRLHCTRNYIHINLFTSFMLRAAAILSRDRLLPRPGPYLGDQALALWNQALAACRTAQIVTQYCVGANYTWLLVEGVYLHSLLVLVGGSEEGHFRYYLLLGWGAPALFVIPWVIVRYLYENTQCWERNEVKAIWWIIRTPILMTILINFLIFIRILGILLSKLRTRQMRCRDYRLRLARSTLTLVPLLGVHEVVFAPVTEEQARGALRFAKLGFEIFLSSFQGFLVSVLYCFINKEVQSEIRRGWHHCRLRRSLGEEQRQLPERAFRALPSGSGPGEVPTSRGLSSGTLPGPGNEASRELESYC

T2: human GLP-2R (Homo sapiens, UniProt O95838)
T2 construct: host or cells: COS-7
T2 sequence (O95838 1-553): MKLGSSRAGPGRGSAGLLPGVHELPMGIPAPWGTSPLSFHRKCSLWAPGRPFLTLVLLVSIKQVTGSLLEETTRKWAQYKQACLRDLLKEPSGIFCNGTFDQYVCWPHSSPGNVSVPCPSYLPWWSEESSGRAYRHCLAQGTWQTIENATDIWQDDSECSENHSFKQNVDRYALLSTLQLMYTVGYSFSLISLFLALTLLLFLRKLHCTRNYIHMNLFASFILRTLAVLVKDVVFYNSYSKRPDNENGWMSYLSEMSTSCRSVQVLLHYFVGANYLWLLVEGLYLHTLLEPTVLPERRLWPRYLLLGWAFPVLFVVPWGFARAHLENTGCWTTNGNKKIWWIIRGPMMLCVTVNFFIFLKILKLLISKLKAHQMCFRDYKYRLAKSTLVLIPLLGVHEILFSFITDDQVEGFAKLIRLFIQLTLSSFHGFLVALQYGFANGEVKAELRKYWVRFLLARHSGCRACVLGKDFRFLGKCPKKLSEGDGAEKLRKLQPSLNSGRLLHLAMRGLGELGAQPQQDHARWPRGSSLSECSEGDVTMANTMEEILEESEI

T3: human SNAP-tagged GIPR (Homo sapiens, UniProt P48546)
T3 construct: host or cells: HEK293A
T3 sequence (P48546 22-466): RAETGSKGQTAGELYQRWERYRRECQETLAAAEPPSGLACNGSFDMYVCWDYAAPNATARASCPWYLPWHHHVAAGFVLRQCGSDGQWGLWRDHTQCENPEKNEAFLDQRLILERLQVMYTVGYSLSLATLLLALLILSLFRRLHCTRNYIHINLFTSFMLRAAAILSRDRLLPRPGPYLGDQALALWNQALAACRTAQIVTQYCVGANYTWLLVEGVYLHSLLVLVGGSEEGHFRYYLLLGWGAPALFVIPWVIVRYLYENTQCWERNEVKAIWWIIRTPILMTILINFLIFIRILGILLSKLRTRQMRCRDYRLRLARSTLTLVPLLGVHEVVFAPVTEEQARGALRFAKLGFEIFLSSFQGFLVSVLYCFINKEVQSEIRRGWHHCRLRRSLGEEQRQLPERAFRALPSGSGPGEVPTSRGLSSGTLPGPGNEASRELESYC

T4: human SNP-tagged GLP-2R (Homo sapiens, UniProt O95838)
T4 construct: expressed in transfected cells; host or cells: HEK293A
T4 sequence (O95838 1-553): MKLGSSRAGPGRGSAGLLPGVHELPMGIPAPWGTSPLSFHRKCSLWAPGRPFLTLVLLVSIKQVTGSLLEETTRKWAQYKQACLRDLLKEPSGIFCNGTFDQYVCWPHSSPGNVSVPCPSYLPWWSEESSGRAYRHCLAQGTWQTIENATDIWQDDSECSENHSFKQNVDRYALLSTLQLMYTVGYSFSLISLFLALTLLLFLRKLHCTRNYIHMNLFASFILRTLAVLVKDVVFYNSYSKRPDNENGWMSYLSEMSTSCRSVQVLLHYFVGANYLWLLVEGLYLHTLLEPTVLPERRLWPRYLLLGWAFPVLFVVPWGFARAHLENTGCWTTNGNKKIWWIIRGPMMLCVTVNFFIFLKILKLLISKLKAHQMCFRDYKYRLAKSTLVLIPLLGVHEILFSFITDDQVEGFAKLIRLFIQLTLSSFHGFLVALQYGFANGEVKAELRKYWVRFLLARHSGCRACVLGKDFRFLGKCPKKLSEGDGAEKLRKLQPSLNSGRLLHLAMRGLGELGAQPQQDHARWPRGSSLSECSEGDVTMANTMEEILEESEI

T5: human GIPR (glucose-dependent insulinotropic polypeptide receptor) (human, UniProt P48546 22-466)
T5 sequence (looked up): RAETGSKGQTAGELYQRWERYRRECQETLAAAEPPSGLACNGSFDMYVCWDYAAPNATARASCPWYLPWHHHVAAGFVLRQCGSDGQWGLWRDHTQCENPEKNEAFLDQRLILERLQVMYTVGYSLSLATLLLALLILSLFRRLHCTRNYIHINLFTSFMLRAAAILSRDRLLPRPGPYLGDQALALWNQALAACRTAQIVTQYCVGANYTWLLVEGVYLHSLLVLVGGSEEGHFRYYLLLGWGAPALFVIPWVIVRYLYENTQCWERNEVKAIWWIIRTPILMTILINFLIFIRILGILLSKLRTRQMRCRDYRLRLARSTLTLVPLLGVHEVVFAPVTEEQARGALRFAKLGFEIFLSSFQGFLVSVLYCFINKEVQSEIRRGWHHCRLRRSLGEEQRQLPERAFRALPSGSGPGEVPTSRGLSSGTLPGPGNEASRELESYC

T6: human GLP-2R (glucagon-like peptide-2 receptor) (human, UniProt O95838 1-553)
T6 sequence (looked up): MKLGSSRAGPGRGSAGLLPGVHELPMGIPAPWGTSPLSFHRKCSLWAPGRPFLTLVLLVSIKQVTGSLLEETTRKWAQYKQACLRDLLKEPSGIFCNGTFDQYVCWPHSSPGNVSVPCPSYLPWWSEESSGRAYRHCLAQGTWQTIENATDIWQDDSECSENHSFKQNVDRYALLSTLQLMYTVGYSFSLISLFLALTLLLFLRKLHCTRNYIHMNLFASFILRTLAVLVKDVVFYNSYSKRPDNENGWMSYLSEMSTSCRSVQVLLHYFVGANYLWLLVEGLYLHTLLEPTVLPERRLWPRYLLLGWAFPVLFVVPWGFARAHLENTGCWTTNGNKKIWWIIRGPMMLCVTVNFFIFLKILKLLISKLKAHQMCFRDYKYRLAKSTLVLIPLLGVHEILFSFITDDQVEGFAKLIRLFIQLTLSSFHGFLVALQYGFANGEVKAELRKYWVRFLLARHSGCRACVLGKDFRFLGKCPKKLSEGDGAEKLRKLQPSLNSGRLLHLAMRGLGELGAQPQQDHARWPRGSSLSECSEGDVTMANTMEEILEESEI

T7: Human N-terminally SNAP-tagged GIPR (human, UniProt P48546 22-466, SNAP tag labeled with Tag-Lite SNAP-Lumi4-Tb)
T7 sequence (looked up): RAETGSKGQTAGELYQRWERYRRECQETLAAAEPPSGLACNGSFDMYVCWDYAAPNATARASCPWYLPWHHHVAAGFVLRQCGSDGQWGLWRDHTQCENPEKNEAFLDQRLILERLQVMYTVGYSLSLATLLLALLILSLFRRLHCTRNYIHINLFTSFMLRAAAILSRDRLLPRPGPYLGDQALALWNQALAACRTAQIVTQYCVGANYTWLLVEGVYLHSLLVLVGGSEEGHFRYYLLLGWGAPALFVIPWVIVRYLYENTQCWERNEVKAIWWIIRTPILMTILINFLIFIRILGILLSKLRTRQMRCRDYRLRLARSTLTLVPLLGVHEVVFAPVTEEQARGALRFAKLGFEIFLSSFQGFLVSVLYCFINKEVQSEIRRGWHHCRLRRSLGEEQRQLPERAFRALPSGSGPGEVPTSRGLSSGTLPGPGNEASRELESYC

B1: Compound 23 (peptide)
peptide: HADGTFTSDYSTILDKK([AEEA-AEEA-γGlu-C18 diacid])AARDFINWLIQTKGKKNDWKHNITQ-OH

How the values were obtained:
human GIPR = target: T1, human GIPR; assay: cAMP assay (HitHunter) in transiently transfected COS-7 cells expressing human GIPR; format: cell-based; details: COS-7; normalized to highest concentration of the endogenous ligand; read-out: Efficacy GIPR (Emax)
human GLP-2R = target: T2, human GLP-2R; assay: cAMP assay (HitHunter) in transiently transfected COS-7 cells expressing human GLP-2R; format: cell-based; details: COS-7; normalized to highest concentration of the endogenous ligand; read-out: Efficacy GLP-2R (Emax)
human GLP-1R = target: T8, human GLP-1R (Homo sapiens, UniProt P43220); assay: cAMP assay (HitHunter) in transiently transfected COS-7 cells expressing human GLP-1R; format: cell-based; details: COS-7; normalized to highest concentration of the endogenous ligand; read-out: Efficacy GLP-1R (Emax)
T8 construct: host or cells: COS-7
T8 sequence (P43220 24-463): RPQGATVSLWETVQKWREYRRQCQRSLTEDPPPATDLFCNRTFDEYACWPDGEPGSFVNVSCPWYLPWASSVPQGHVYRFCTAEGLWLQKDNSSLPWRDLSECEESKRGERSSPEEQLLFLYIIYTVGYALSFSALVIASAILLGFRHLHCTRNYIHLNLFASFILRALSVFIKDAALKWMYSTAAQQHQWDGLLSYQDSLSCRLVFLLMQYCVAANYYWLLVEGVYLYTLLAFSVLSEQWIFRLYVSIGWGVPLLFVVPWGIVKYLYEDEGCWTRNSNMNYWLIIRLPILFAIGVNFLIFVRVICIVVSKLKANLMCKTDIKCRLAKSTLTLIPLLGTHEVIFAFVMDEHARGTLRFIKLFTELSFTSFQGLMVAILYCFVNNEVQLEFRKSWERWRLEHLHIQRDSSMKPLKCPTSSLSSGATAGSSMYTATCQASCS

human SNAP-tagged GIPR = target: T3, human SNAP-tagged GIPR; assay: Receptor internalization assay, HEK293A cells expressing human SNAP-tagged GIPR; format: cell-based; details: AUC of sigmoid curves up to 1 μM; 60 minutes at 37° C.
human SNAP-tagged GLP-1R = target: T9, human SNAP-tagged GLP-1R (Homo sapiens, UniProt P43220); assay: Receptor internalization assay, HEK293A cells expressing human SNAP-tagged GLP-1R; format: cell-based; details: AUC of sigmoid curves up to 1 μM; 60 minutes at 37° C.
T9 construct: expressed in transfected cells; host or cells: HEK293A
T9 sequence (P43220 24-463): as above

human SNP-tagged GLP-2R = target: T4, human SNP-tagged GLP-2R; assay: Receptor internalization assay, HEK293A cells expressing human SNAP-tagged GLP-2R; format: cell-based; details: AUC of sigmoid curves up to 1 μM; 60 minutes at 37° C.
[1] = target: T5, human GIPR (glucose-dependent …); assay: cell-based or functional assay
[2] = target: T6, human GLP-2R (glucagon-like peptide-2 …); assay: cell-based or functional assay
[3] = target: human GLP-1R (glucagon-like peptide-1 receptor) (human, UniProt P43220 24-463); assay: cell-based or functional assay
[4] = target: T7, Human N-terminally SNAP-tagged GIPR; assay: cell-based or functional assay

Molecule	Emax (human GIPR)	Emax (human GLP-2R)	Emax (human GLP-1R)	Absolute hGIPR internalization (AUC) (human SNAP-tagged GIPR)	Absolute hGLP-1R internalization (AUC) (human SNAP-tagged GLP-1R)	Absolute hGLP-2R internalization (AUC) (human SNP-tagged GLP-2R)	EC50 (nM) GIPR [1]	Efficacy GIPR [1]	pEC50 GIPR [1]	EC50 (nM) GLP-2R [2]	Efficacy GLP-2R [2]	logEC50 GLP-2R [2]	EC50 (nM) GLP-1R [3]	Efficacy GLP-1R [3]	logEC50 GLP-1R [3]	Absolute hGIPR internalization (AUC) [4]	Relative hGIPR internalization (%) [4]
CC[C@H](C)[C@H](NC(=O)[C@H](Cc1ccccc1)NC(=O)[C@H](CC(=O)O)NC(=O)[C@H](CCCNC(=N)N)NC(=O)[C@H](C)NC(=O)[C@H](C)NC(=O)[C@H](CC(C)C)NC(=O)[C@H](CC(N)=O)NC(=O)[C@H](CC(=O)O)NC(=O)[C@H](CC(C)C)NC(=O)[C@@H](NC(=O)[C@@H](NC(=O)[C@H](CO)NC(=O)[C@H](Cc1ccc(O)cc1)NC(=O)[C@H](CC(=O)O)NC(=O)[C@H](CO)NC(=O)[C@@H](NC(=O)[C@H](Cc1ccccc1)NC(=O)[C@@H](NC(=O)CNC(=O)[C@H](CC(=O)O)NC(=O)[C@H](C)NC(=O)[C@@H](N)Cc1c[nH]cn1)[C@@H](C)O)[C@@H](C)CC)[C@@H](C)O)[C@@H](C)CC)C(=O)N[C@@H](CC(N)=O)C(=O)N[C@@H](Cc1c[nH]c2ccccc12)C(=O)N[C@@H](CC(C)C)C(=O)N[C@H](C(=O)N[C@@H](CCC(N)=O)C(=O)N[C@H](C(=O)N[C@@H](CCCCN)C(=O)NCC(=O)N[C@@H](CCCCN)C(=O)N[C@@H](CCCCN)C(=O)N[C@@H](CCCCNC(=O)COCCOCCNC(=O)COCCOCCNC(=O)CC[C@H](NC(=O)CCCCCCCCCCCCCCCCC(=O)O)C(=O)O)C(=O)O)[C@@H](C)O)[C@@H](C)CC [Compound 34] (H-HADGTFISDYSTILDNLAARDFINWLIQTKGKKK([AEEA-AEEA-γGlu-C18 diacid])-OH; N-terminus assumed)	103%	91%	97%	14.7	6.0	8.0	–	–	–	–	–	–	–	–	–	–	–
B1	–	–	–	–	–	–	7.08 nM	82	8.2	3.5 nM	95	8.5	0.05 nM	105	10.3	1.2 AUC	3%
